As usually defined, the Kd is the free concentration of one partner at which half of the binding sites on the other are occupied at equilibrium, for simple one-to-one binding. Higher therefore signals weaker binding.

Substitutions are numbered along the chain they refer to. In names and notes the source's numbering stands. Several values for one entry are separate records, joined by “and”; a condition that tells them apart may be missing. Equal entries are not always repeated.

Sequences and labels used below:
T1: Tpz1 (full length, in S. pombe) (S. pombe, UniProt O14246 1-508)
T1 sequence (looked up): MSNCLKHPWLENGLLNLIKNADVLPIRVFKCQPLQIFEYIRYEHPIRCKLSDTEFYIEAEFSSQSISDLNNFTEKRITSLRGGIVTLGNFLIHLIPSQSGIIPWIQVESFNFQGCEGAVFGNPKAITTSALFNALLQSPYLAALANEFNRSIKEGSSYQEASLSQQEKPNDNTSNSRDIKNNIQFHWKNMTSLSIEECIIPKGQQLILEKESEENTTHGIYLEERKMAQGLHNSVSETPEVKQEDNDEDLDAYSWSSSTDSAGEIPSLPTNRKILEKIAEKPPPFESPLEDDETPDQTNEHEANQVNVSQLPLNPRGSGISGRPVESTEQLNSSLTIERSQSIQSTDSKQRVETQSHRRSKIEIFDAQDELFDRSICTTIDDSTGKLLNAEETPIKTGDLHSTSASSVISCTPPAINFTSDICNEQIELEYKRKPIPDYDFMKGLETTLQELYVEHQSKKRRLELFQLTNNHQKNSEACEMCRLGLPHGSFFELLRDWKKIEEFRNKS

T2: TIN2 (human, UniProt Q9BSI4 1-451)
T2 sequence (looked up): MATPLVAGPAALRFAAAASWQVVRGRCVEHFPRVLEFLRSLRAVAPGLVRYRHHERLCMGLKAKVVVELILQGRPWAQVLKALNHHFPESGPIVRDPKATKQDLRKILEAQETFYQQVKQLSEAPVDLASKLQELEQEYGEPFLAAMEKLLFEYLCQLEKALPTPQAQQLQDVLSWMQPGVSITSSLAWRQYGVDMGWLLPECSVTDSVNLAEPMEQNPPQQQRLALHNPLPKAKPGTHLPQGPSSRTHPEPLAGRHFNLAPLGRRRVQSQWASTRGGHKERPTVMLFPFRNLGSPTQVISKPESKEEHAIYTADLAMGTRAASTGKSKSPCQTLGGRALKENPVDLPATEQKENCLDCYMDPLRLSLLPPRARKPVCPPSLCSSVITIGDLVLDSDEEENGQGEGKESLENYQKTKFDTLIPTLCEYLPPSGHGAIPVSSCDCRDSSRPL

T3: Rap1^467–496 (S. pombe, UniProt Q96TL7 467-496)
T3 chain (looked up): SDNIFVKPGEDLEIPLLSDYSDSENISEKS

T4: Poz1ΔN (Poz1^29-249) (S. pombe, UniProt O13852 29-249)
T4 sequence (looked up): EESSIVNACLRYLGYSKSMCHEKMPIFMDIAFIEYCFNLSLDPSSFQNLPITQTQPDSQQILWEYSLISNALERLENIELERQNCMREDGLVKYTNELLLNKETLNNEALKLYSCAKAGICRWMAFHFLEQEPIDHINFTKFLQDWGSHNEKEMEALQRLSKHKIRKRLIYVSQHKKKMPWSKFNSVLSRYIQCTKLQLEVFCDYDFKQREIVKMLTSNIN

T5: Poz1^L14R-Tpz1^475–508 (S. pombe, UniProt O14246 475-508; O13852 1-249, L14R)
T5 sequence (looked up) 1: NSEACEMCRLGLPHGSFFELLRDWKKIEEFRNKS
T5 sequence (looked up) 2: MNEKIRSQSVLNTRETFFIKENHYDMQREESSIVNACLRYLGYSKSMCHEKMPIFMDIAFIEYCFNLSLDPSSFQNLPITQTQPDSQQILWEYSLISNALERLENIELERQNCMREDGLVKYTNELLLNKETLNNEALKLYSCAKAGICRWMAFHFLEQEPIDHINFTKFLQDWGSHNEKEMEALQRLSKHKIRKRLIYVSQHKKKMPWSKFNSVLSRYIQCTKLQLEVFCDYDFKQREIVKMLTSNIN

T6: Tpz1-Poz1ΔN complex (S. pombe, UniProt O14246 475-508; O13852 29-249)
T6 sequence (looked up) 1: T5 sequence (looked up) 1
T6 sequence (looked up) 2: T4 sequence (looked up)

B1: Poz1ΔN (in S. pombe) (domain or fragment, UniProt O13852 29-249, looked up)
chain: T4 sequence (looked up)
B2: Poz1 of the improved crystal construct Tpz1^475–508-Poz1-Rap1^467–496 (residues 73–86 replaced by GGA, 117–126 by GGGSA) (natural protein, S. pombe)
chain: MNEKIRSQSVLNTLETFFIKENHYDMQREESSIVNACLRYLGYSKSMCHEKMPIFMDIAFIEYCFNLSLDPSGGAQQILWEYSLISNALERLENIELERQNCMREGGGSALLNKETLNNEALKLYSCAKAGICRWMAFHFLEQEPIDHINFTKFLQDWGSHNEKEMEALQRLSKHKIRKRLIYVSQHKKKMPWSKFNSVLSRYIQCTKLQLEVFCDYDFKQREIVKMLTSNIN
B3: Tpz1^475–508-Poz1 complex (complex, S. pombe)
chain 1: T5 sequence (looked up) 1
chain 2: T5 sequence (looked up) 2 with R14L
B4: Poz1-L14R (in S. pombe) (natural protein, UniProt O13852 1-249, looked up)
chain: T5 sequence (looked up) 2
B5: GST-Rap1^446-512 (domain or fragment, S. pombe, UniProt Q96TL7 446-512, looked up)
chain: EKTLRETSFRSLDDMSLRKSNSDNIFVKPGEDLEIPLLSDYSDSENISEKSSDDEEAFEKQVTSSYS
B6: Poz1 (full length) (natural protein, S. pombe, UniProt O13852 1-249, looked up)
chain: T5 sequence (looked up) 2 with R14L
B7: Biotin-SUMO-tagged Rap1^446-512 (domain or fragment, S. pombe, UniProt Q96TL7 446-512, looked up)
chain: B5 chain
modifications: also: SUMO tag fused, biotin on Avi tag
B8: GST-Tpz1^406-508 (domain or fragment, S. pombe, UniProt O14246 406-508, looked up)
chain: SSVISCTPPAINFTSDICNEQIELEYKRKPIPDYDFMKGLETTLQELYVEHQSKKRRLELFQLTNNHQKNSEACEMCRLGLPHGSFFELLRDWKKIEEFRNKS
B9: Rap1^446-523 (domain or fragment, S. pombe, UniProt Q96TL7 446-523, looked up)
chain: EKTLRETSFRSLDDMSLRKSNSDNIFVKPGEDLEIPLLSDYSDSENISEKSSDDEEAFEKQVTSSYSSPIKVKSQGKS

In assay [1] the target is T1, Tpz1 (full length, in S. pombe). As to the kind of experiment: co-IP.
In the next assay the target is T2, TIN2. As to the kind of experiment: ITC.
For the next assay, the target named is T3, Rap1^467–496. The assay can be described thus: crystal structure.
For assay [2], the target named is B7. The assay can be described thus: BLI.
The target in assay [3] is B6. As to the kind of experiment: pull-down.
The target of assay [4] is B3. As to the kind of experiment: pull-down.
The target of another assay is T4, Poz1ΔN (Poz1^29-249). The assay can be described thus: BLI. On the technique in general: Biolayer interferometry detects binding as a change in optical thickness at a sensor tip.
A further assay concerns the target T5, Poz1^L14R-Tpz1^475–508. As to the kind of experiment: BLI.
Assay [5] has as its target B6. As to the kind of experiment: crystal structure.
The target in assay [6] is B6. The assay can be described thus: ITC. In general terms: Isothermal titration calorimetry measures the heat released or taken up as one component is titrated into another.
A further assay concerns the target T6, Tpz1-Poz1ΔN complex. As to the kind of experiment: ITC.
The target in assay [7] is B3. The assay can be described thus: ITC.

For B1, the “fold decrease of the co-IP against wild-type cells” value in assay [1] was about 3 fold. As for APADGEGGSELQPKNKRMTISRLVLEEDSQSTEPSAGLNSSQE (domain or fragment, human, UniProt Q15554 382-424, looked up) [TRF2^382-424], the Kd with TIN2 worked out at 3.11 µM. B2: the binding result in the assay with Rap1^467–496 is “binds”. As for B3, the “koff, fold slower than with free Poz1” value in assay [2] is about 60 fold. Consider B4, for which the “fold decrease of the co-IP against wild-type cells” value in assay [1] is about 3 fold. On to B5, for which the binding result (in the assay with Poz1 (full length) [3]; in [4]) was “binds” throughout. As for B6, the “kon, fold against Tpz1-bound Poz1” value in [2] is about 5 fold. With B7, the binding result in the assay with Poz1ΔN (Poz1^29-249) and in the assay with Poz1^L14R-Tpz1^475–508 was “binds” in each case. Turning to B8, the binding result with Poz1 (full length) [3] is recorded as “binds”. Regarding IFVKPGEDLEIPLLSDYSDSENISE (domain or fragment, S. pombe, UniProt Q96TL7 470-494, looked up) [Rap1^470-494], the binding result with Poz1 (full length) [5] is given as “binds”. As to B9, the Kd in the assay with Poz1 (full length) [6] was 5.62 µM and 4.95 µM; with Tpz1-Poz1ΔN complex, 4.58 µM; in [7], 0.48 µM.

For the origin of these results see publication PMC5698806 (Molecular cell, 2017).
